Series [1] has as its target T1, SLFN5 1-336 (Schlafen core domain) (Homo sapiens, UniProt Q08AF3 1-336).
T1 sequence: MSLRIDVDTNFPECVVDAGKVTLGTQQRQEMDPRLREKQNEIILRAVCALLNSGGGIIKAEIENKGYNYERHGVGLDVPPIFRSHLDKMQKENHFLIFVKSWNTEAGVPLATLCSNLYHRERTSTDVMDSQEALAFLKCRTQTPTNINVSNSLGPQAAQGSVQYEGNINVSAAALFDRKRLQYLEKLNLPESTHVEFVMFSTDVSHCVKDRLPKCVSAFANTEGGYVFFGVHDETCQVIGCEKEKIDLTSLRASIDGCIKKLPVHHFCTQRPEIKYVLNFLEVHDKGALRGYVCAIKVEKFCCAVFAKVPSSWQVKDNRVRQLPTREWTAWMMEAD
Description: fluorescence anisotropy; FA: 2x buffer 100 mM HEPES pH 8.0, 100 mM NaCl mixed 1:1 with 100 nM (final) FAM ligand, 30 min on ice; EMSA: 25 mM HEPES pH 7.0, 60 mM NaCl, 5% glycerol, 2 mM. Conditions: protein: recombinant, tags: C-terminal His6. On the technique in general: Fluorescence polarisation rises when a labelled molecule tumbles more slowly, as on binding a larger partner.

For series [2], the target named is T2, SLFN5 full length (Homo sapiens, UniProt Q08AF3 1-891).
T2 sequence: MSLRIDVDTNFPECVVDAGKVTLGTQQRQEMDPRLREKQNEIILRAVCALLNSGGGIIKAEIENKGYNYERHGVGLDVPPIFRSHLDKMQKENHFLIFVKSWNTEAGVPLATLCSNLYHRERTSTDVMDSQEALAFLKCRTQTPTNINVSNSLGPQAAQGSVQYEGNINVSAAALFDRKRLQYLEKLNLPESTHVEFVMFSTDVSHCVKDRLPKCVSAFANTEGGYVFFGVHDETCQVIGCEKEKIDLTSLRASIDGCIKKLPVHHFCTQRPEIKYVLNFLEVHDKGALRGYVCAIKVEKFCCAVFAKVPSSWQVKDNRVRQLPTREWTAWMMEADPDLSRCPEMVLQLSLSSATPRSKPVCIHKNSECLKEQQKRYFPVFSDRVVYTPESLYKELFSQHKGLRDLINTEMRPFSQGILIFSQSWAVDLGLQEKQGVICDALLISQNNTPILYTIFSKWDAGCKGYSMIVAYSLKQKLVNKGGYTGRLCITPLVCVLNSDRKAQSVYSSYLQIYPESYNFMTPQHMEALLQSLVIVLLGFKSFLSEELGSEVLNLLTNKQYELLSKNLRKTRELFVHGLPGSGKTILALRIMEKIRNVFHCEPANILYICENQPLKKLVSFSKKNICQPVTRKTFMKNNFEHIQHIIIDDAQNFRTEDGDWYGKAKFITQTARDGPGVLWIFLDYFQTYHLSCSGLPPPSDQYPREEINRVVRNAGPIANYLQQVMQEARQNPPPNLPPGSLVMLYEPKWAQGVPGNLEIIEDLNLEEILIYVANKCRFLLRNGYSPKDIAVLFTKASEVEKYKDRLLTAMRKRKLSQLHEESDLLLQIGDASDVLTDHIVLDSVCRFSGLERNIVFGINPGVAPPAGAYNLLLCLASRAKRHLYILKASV
Description: competition EMSA; with tRNASer, 20 nM each; 196 bp DNA preferred; FA: 2x buffer 100 mM HEPES pH 8.0, 100 mM NaCl mixed 1:1 with 100 nM (final) FAM ligand, 30 min on ice; EMSA: 25 mM HEPES pH 7.0, 60 mM NaCl, 5% glycerol, 2 mM. Conditions: protein: recombinant; tags: N-terminal double FLAG, HRV 3C site; label: 5'-Cy5 (rev primer); blunt. On the technique in general: A gel shift assay detects complexes by their altered migration in electrophoresis.

For series [3], the target named is T2, SLFN5 full length. Description: competition EMSA; with tRNASer, 20 nM each; comparable affinities; FA: 2x buffer 100 mM HEPES pH 8.0, 100 mM NaCl mixed 1:1 with 100 nM (final) FAM ligand, 30 min on ice; EMSA: 25 mM HEPES pH 7.0, 60 mM NaCl, 5% glycerol, 2 mM. Conditions: protein: recombinant; tags: N-terminal double FLAG, HRV 3C site; label: 5'-Cy5 (fwd); blunt.

From article PMC8789055, “Structural and biochemical characterization of human Schlafen 5” come the findings set out here.

What is called Kd is the concentration at which binding is half-saturated.

Where a chain is given by its changes, count along the chain named.

B1: 60 dT (ssDNA)
DNA: TTTTTTTTTTTTTTTTTTTTTTTTTTTTTTTTTTTTTTTTTTTTTTTTTTTTTTTTTTTT
Take B1: the dissociation constant (Kd) in series [1] (label: 5'-FAM) was 7.8 µM.

B2: 60 bp DNA (60bp_A/T_GC) (dsDNA)
DNA 1: B1 DNA with T50G, T51C
DNA 2: AAAAAAAAAGCAAAAAAAAAAAAAAAAAAAAAAAAAAAAAAAAAAAAAAAAAAAAAAAAA
Take B2: the Kd in series [1] (label: 5'-FAM (fwd), blunt) was found to be 2.5 µM.

B3: 30 rU (ssRNA)
RNA: UUUUUUUUUUUUUUUUUUUUUUUUUUUUUU
On to B3, for which, in series [1] (label: 5'-FAM), the Kd worked out at 5.1 µM.

B4: 196 bp DNA (0N49) (dsDNA)
DNA 1: CTGGAGAATCCCGGTGCCGAGGCCGCTCAATTGGTCGTAGCAAGCTCTAGCACCGCTTAAACGCACGTACGCGCTGTCCCCCGCGTTTTAACCGCCAAGGGGATTACTCCCTAGTCTCCAGGCACGTGTCAGATATATACATCCTGTGCATGTATTGAACAGCGACCTTGCCGGTGCCAGTCGGATAGTGTTCCGA
DNA 2: TCGGAACACTATCCGACTGGCACCGGCAAGGTCGCTGTTCAATACATGCACAGGATGTATATATCTGACACGTGCCTGGAGACTAGGGAGTAATCCCCTTGGCGGTTAAAACGCGGGGGACAGCGCGTACGTGCGTTTAAGCGGTGCTAGAGCTTGCTACGACCAATTGAGCGGCCTCGGCACCGGGATTCTCCAG
With B4, the binding result in series [2] was “binds”.

B5: tRNA(Ser) (structured_RNA)
RNA: GUAGUCGUGGCCGAGUGGUUAAGGCGAUGGACUUGAAAUCCAUUGUGGUUUCCCCGCGCAGGUUCGAAUCCUGCCGACUACGCCA
For the molecule B5, the dissociation constant (Kd) in series [1] (label: 5'-FAM, tRNA fold) was found to be 4.3 µM.

B6: 30 dT (ssDNA)
DNA: TTTTTTTTTTTTTTTTTTTTTTTTTTTTTT
B6: the Kd in series [1] (label: 5'-FAM) came out at 11 µM.

B7: 50 bp DNA (dsDNA)
DNA 1: AATTGGTCGTAGCAAGCTCTAGCACCGCTTAAACGCACGTACGCGCTGTC
DNA 2: GACAGCGCGTACGTGCGTTTAAGCGGTGCTAGAGCTTGCTACGACCAATT
Turning to B7, the binding result in series [3] was “binds”.

B8: 60 rU (ssRNA)
RNA: UUUUUUUUUGCUUUUUUUUUUUUUUUUUUUUUUUUUUUUUUUUUUUUUUUUUUUUUUUUU
As to B8, in series [1] (label: 5'-FAM), the Kd stood at 3.6 µM.
